Data reported in patent US20190077860A1 (EISAI R AND D MANAGEMENT, published 2019).

T1: human EphB1 extracellular region-SEAP-His protein (human, UniProt P54762 18-540)
T1 construct: extracellular domain; also called hEphB1-SEAP-His
T1 sequence (looked up): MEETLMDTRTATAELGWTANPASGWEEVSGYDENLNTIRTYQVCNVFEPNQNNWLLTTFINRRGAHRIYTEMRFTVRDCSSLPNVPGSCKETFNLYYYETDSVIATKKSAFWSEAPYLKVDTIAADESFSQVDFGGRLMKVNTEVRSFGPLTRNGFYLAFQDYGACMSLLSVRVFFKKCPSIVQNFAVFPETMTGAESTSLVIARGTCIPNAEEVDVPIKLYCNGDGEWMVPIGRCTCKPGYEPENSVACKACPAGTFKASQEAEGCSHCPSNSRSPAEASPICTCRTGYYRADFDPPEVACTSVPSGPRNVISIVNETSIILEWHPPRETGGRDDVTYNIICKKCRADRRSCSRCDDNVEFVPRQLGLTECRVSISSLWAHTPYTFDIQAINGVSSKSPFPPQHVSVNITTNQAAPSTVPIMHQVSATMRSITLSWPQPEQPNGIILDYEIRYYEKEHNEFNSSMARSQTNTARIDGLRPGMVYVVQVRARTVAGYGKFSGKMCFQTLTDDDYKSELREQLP

T2: human EphA1 extracellular region-SEAP-His protein (human, UniProt P21709 26-547)
T2 construct: extracellular domain; also called hEphA1-SEAP-His
T2 sequence (looked up): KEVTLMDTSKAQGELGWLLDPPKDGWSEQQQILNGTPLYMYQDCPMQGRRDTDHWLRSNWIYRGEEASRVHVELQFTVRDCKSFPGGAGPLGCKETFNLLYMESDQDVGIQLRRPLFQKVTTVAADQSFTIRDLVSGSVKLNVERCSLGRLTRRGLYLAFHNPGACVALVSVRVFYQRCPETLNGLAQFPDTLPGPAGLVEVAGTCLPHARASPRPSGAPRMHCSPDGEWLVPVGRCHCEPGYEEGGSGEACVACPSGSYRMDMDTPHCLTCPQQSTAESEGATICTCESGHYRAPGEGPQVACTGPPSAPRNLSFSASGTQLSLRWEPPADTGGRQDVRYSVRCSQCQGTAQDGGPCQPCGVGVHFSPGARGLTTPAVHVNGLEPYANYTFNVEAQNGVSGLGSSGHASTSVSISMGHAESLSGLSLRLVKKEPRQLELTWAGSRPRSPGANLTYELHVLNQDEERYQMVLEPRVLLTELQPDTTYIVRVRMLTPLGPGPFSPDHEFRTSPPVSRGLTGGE


Experiments:
[1] = target: T1, human EphB1 extracellular …; assay: ELISA
[2] = target: T2, human EphA1 extracellular …; assay: ELISA

Binder | A450 as % of hEphA4-SEAP-His [1] [%] | A450 as % of hEphA4-SEAP-His [2] [%]
humanized antibody No. 76 (antibody, human IgG1, kappa, human Ig kappa; also called L1-4/HA2) heavy: QVQLVQSGSELKKPGASVKVSCKASGYTFTDYSMHWVRQAPGQGLKWMGWINTETGEPTYAQGFTGRFVFSLDTSVSTAYLQISSLKAEDTAVYYCARIPLYYYGSRYWYFDVWGQGTTVTVSSASTKGPSVFPLAPSSKSTSGGTAALGCLVKDYFPEPVTVSWNSGALTSGVHTFPAVLQSSGLYSLSSVVTVPSSSLGTQTYICNVNHKPSNTKVDKRVEPKSCDKTHTCPPCPAPPAAAPSVFLFPPKPKDTLMISRTPEVTCVVVDVSHEDPEVQFNWYVDGVEVHNAKTKPREEQFNSTFRVVSVLTVVHQDWLNGKEYKCKVSNKGLPAPIEKTISKTKGQPREPQVYTLPPSREEMTKNQVSLTCLVKGFYPSDIAVEWESNGQPENNYKTTPPMLDSDGSFFLYSKLTVDKSRWQQGNVFSCSVMHEALHNHYTQKSLSLSPG light: DIQMTQSPSSLSASVGDRVTITCRASENIYRNLAWYQQKPGKAPKLLVYAATNLADGVPSRFSGSGSGTDYTLTISSLQPEDFATYYCQHFWGTPWTFGQGTKVEIKRTVAAPSVFIFPPSDEQLKSGTASVVCLLNNFYPREAKVQWKVDNALQSGNSQESVTEQDSKDSTYSLSSTLTLSKADYEKHKVYACEVTHQGLSSPVTKSFNRGEC | 4.9 | 5.1
humanized antibody No. 67 (antibody, human IgG1, kappa, human Ig kappa; also called L1-4/HA4) heavy: QIQLVQSGSELKKPGASVKVSCKASGYTFTDYSMHWVRQAPGQGLKWMGWINTETGEPTYAQGFTGRFVFSLDTSVSTAYLQISSLKAEDTAVYYCARIPLYYYGSRYWYFDVWGQGTTVTVSSASTKGPSVFPLAPSSKSTSGGTAALGCLVKDYFPEPVTVSWNSGALTSGVHTFPAVLQSSGLYSLSSVVTVPSSSLGTQTYICNVNHKPSNTKVDKRVEPKSCDKTHTCPPCPAPPAAAPSVFLFPPKPKDTLMISRTPEVTCVVVDVSHEDPEVQFNWYVDGVEVHNAKTKPREEQFNSTFRVVSVLTVVHQDWLNGKEYKCKVSNKGLPAPIEKTISKTKGQPREPQVYTLPPSREEMTKNQVSLTCLVKGFYPSDIAVEWESNGQPENNYKTTPPMLDSDGSFFLYSKLTVDKSRWQQGNVFSCSVMHEALHNHYTQKSLSLSPG light: DIQMTQSPSSLSASVGDRVTITCRASENIYRNLAWYQQKPGKAPKLLVYAATNLADGVPSRFSGSGSGTDYTLTISSLQPEDFATYYCQHFWGTPWTFGQGTKVEIKRTVAAPSVFIFPPSDEQLKSGTASVVCLLNNFYPREAKVQWKVDNALQSGNSQESVTEQDSKDSTYSLSSTLTLSKADYEKHKVYACEVTHQGLSSPVTKSFNRGEC | 4.6 | 4.6
humanized antibody No. 69 (antibody, human IgG1, kappa, human Ig kappa; also called L1-4/HK4) heavy: QIQLVQSGSELKKPGASVKVSCKASGYTFTDYSMHWVRQAPGQGLKWMGWINTETGEPTYADDFKGRFVFSLDTSVSTAYLQISSLKAEDTAVYYCARIPLYYYGSRYWYFDVWGQGTTVTVSSASTKGPSVFPLAPSSKSTSGGTAALGCLVKDYFPEPVTVSWNSGALTSGVHTFPAVLQSSGLYSLSSVVTVPSSSLGTQTYICNVNHKPSNTKVDKRVEPKSCDKTHTCPPCPAPPAAAPSVFLFPPKPKDTLMISRTPEVTCVVVDVSHEDPEVQFNWYVDGVEVHNAKTKPREEQFNSTFRVVSVLTVVHQDWLNGKEYKCKVSNKGLPAPIEKTISKTKGQPREPQVYTLPPSREEMTKNQVSLTCLVKGFYPSDIAVEWESNGQPENNYKTTPPMLDSDGSFFLYSKLTVDKSRWQQGNVFSCSVMHEALHNHYTQKSLSLSPG light: DIQMTQSPSSLSASVGDRVTITCRASENIYRNLAWYQQKPGKAPKLLVYAATNLADGVPSRFSGSGSGTDYTLTISSLQPEDFATYYCQHFWGTPWTFGQGTKVEIKRTVAAPSVFIFPPSDEQLKSGTASVVCLLNNFYPREAKVQWKVDNALQSGNSQESVTEQDSKDSTYSLSSTLTLSKADYEKHKVYACEVTHQGLSSPVTKSFNRGEC | 5.6 | 5.7
